According to US20050250935A1 (priority 2004, published 2005):

In the case of “human follicle—stimulating hormone [FSH]”, the “estimated FSH activity, in vivo biological assay in rat” value is reported as 6578 IU per mg protein, the “FSH activity in the lower sample after centrifugation, in vivo test” value (rat) is reported as “undetectable” and the “FSH activity in the upper sample after centrifugation, in vivo test” value (rat) is reported as 97%.
